Values of other authors in PMC4650670.

Target: actin (Oryctolagus cuniculus) (UniProt P68135)

nebulin repeat fragment (from UniProt P20929)
Kd: 220 µM
